Laboratory results taken from patent WO2024096022A1 (dated 2024).

T1: human AdipoR2 protein (human, UniProt Q86V24 1-386)
T1 construct: Stably expressed on CHO cells together with EGFP as a separate expression marker; also called adiponectin receptor 2; hAdipoR2
T1 sequence: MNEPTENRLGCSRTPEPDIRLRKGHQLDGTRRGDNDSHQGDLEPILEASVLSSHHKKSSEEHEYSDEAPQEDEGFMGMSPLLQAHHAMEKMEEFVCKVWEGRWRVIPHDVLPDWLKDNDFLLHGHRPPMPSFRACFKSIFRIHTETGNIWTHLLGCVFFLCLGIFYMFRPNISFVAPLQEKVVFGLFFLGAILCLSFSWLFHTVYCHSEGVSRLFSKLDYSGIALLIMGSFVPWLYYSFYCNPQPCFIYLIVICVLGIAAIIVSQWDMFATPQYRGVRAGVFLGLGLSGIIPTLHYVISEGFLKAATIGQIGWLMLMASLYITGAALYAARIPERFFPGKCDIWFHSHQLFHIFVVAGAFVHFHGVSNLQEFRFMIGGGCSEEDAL

T2: human AdipoR1 protein (human, UniProt Q96A54 1-375)
T2 construct: Stably expressed on CHO cells together with EGFP as a separate expression marker; also called adiponectin receptor 1; hAdipoR1
T2 sequence: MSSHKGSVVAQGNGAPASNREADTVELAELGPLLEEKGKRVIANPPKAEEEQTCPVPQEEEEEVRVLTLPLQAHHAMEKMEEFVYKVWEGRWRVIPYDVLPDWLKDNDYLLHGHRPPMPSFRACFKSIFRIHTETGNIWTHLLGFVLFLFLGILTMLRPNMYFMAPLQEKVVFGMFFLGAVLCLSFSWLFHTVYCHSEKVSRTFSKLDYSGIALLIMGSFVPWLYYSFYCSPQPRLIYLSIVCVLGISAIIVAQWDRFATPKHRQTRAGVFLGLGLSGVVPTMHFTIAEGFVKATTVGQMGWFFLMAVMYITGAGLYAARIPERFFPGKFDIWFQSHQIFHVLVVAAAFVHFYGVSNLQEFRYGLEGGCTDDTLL


How the values were obtained:
human AdipoR2 protein [1] = biological target: T1, human AdipoR2 protein; experiment: fluorescent ligand binding to cells stably expressing human AdipoR2 (8200 Cellular Detection System)
human AdipoR1 protein = biological target: T2, human AdipoR1 protein; experiment: flow cytometry on human AdipoR1-expressing CHO cells against parental CHO cells
human AdipoR2 protein [2] = biological target: T1, human AdipoR2 protein; experiment: flow cytometry on human AdipoR2-expressing CHO cells against parental CHO cells

binding result (human AdipoR2 protein [1]) | binding result (human AdipoR1 protein) | binding result (human AdipoR2 protein [2]) | Binder
binds |  |  | fluorescently labeled human plasma-derived adiponectin (ligand, UniProt Q15848 19-244, looked up, fluorescent label (site not stated)) ETTTQGPGVLLPLPKGACTGWMAGIPGHPGHNGAPGRDGRDGTPGEKGEKGDPGLIGPKGDIGETGVPGAEGPRGFPGIQGRKGEPGEGAYVYRSAFSVGLETYVTIPNMPIRFTKIFYNQQNHYDGSTGKFHCNIPGLYYFAYHITVYMKDVKVSLFKKDKAMLFTYDQYQENNVDQASGSVLLHLEVGDQVWLQVYGEGERNGLYADNDNDSTFTGFLLYHDTN
 | binds | binds | mouse-human chimeric antibody WT (antibody, V domains shown) VH: DVKLVESGEGLVKPGGSLKLSCAASGFTFSSYAMSWVRQTPEKRLEWVAYISSGGDYIYYADTVKGRFTISRDNARNTLYLQMSSLKSEDTAMYYCTRALEAMDYWGQGTSVTVSS VL: ETTVTQSPASLSMAIGEKVTIRCITSTDIDDDMNWYQQKPGEPPKLLISEGNTLRPGVPSRFSSSGYGTDFVFTIENMLSEDVADYYCLQSDNLPFTFGSGTKLEIK
